Positions count from the first letter of the chain named.
T1: SARA Smad-binding domain (amino acids 665–721) on the 3xFlag-thioredoxin scaffold (UniProt O95405 767-823)
T1 construct: SARA, amino acids 665–721; cloned into the unique RsrII site of pCI-3xFLAG-Trx; also called SARA aa665–721; TrxSARA; source: HEK-293, transfected, in lysate
T1 sequence (looked up): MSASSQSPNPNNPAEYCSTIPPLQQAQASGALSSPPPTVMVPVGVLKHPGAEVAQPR

T2: Ski Smad-binding domain (amino acids 2–56) on the 3xFlag-thioredoxin scaffold (UniProt P12755 2-56)
T2 construct: Ski, amino acids 2–56; cloned into the unique RsrII site of pCI-3xFLAG-Trx; also called Ski aa2–56; TrxSki; source: HEK-293, transfected, in lysate
T2 sequence (looked up): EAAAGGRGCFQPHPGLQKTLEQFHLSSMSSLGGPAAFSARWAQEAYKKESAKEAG

T3: Flag-Smad4, full length (UniProt Q13485 1-552)
T3 construct: Smad4; plasmid pCMV5-Flag-Smad4 (from J. Massagué); also called Smad4 FL; source: HEK-293, transfected, in lysate
T3 sequence (looked up): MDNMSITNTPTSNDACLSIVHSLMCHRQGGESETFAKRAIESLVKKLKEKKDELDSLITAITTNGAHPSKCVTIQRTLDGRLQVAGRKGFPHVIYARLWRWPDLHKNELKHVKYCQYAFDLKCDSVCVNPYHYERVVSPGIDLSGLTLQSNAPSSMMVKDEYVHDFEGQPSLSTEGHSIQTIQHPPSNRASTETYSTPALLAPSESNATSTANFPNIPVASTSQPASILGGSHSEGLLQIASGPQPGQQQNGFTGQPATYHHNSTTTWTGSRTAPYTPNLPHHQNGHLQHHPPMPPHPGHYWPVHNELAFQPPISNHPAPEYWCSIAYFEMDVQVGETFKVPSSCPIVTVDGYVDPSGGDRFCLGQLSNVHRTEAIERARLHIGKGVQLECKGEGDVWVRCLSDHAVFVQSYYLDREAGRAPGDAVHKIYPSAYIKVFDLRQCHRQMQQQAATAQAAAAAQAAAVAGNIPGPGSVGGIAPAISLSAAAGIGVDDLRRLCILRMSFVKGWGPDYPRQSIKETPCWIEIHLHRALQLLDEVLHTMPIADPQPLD

B1: Renilla luciferase-Smad3 D408H (natural protein, UniProt P84022 1-425, looked up)
chain: MSSILPFTPPIVKRLLGWKKGEQNGQEEKWCEKAVKSLVKKLKKTGQLDELEKAITTQNVNTKCITIPRSLDGRLQVSHRKGLPHVIYCRLWRWPDLHSHHELRAMELCEFAFNMKKDEVCVNPYHYQRVETPVLPPVLVPRHTEIPAEFPPLDDYSHSIPENTNFPAGIEPQSNIPETPPPGYLSEDGETSDHQMNHSMDAGSPNLSPNPMSPAHNNLDLQPVTYCEPAFWCSISYYELNQRVGETFHASQPSMTVDGFTDPSNSERFCLGLLSNVNRNAAVELTRRHIGRGVRLYYIGGEVFAECLSDSAIFVQSPNCNQRYGWHPATVCKIPPGCNLKIFNNQEFAALLAQSVNQGFEAVYQLTRMCTIRMSFVKGWGAEYRRQTVTSTPCWIELHLNGPLQWLHKVLTQMGSPSIRCSSVS
notes: Smad3; source: HEK-293, transfected together with constitutively active Alk5, in lysate
B2: Renilla luciferase-Smad3 Y297A (natural protein, UniProt P84022 1-425, looked up)
chain: B1 chain with Y297A, H408D
notes: as for B1
B3: Renilla luciferase-Smad3 R268A (natural protein, UniProt P84022 1-425, looked up)
chain: B1 chain with R268A, H408D
notes: as for B1
B4: Renilla luciferase-Smad3 R292A (natural protein, UniProt P84022 1-425, looked up)
chain: B1 chain with R292A, H408D
notes: as for B1
B5: Renilla luciferase-Smad3 R243A (natural protein, UniProt P84022 1-425, looked up)
chain: B1 chain with R243A, H408D
notes: as for B1
B6: Renilla luciferase-Smad3 Y238A (natural protein, UniProt P84022 1-425, looked up)
chain: B1 chain with Y238A, H408D
notes: as for B1
B7: Renilla luciferase-Smad3 Y384A (natural protein, UniProt P84022 1-425, looked up)
chain: B1 chain with Y384A, H408D
notes: as for B1

The binders below were run against T1, SARA Smad-binding domain (amino acids …) (assay: co-IP; LUMIER: Renilla luciferase-Smad3 and Flag-tagged partner co-expressed with constitutively active Alk5 in HEK-293; Flag protein captured from cleared lysate (TNE: 10 mM Tris-HCl pH 7.8, 150 mM NaCl, 1 mM EDTA, 1% Igepal CA-630) on anti-Flag 96-well plates, 2 h at 4 °C; co-precipitated Renilla luciferase activity, TrxGA background subtracted, percent of wild-type Smad3). Conditions: partners not purified.

Row | Binder | percent binding relative to wild-type Smad3
1 | B1 | 125%
2 | B2 | 8%

The binders below were run against T4, Smurf2 Smad-binding domain (amino acids 252–330) on the Flag-thioredoxin scaffold (UniProt Q9HAU4 252-330) in the same assay as above. Conditions: partners not purified.
T4 construct: Smurf2, amino acids 252–330; also called Smurf2 aa252–330; TrxSmurf2; source: HEK-293, transfected, in lysate
T4 sequence (Q9HAU4 252-330): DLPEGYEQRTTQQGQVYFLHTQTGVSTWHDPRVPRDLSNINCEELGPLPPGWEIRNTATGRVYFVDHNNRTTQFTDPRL

Row | Binder | percent binding relative to wild-type Smad3
3 | B1 | 23%
4 | B2 | 119%

Each binder was assayed against T2, Ski Smad-binding domain (amino acids …) in the same assay as above. Conditions: partners not purified.

Row | Binder | percent binding relative to wild-type Smad3
5 | B1 | 3%
6 | B2 | 1%

The binders below were run against T3, Flag-Smad4, full length in the same assay as above. Conditions: partners not purified.

Row | Binder | percent binding relative to wild-type Smad3
7 | B1 | 3%
8 | B2 | 181%

Target: T4, Smurf2 Smad-binding domain (amino acids …)
Experiment: as above
Conditions: partners not purified
Remark: another data set of the same source

Row | Binder | percent binding relative to wild-type Smad3
9 | B3 | 21%
10 | B4 | 31%
11 | B5 | 19%
12 | B6 | 28%
13 | B7 | 24%

Target: T3, Flag-Smad4, full length
Experiment: as above
Conditions: partners not purified
Remark: another data set of the same source

Row | Binder | percent binding relative to wild-type Smad3
14 | B3 | 18%
15 | B4 | 49%
16 | B5 | 20%
17 | B6 | 27%
18 | B7 | 19%

From publication PMC3176292, “Mutations in Protein-Binding Hot-Spots on the Hub Protein Smad3 Differentially Affect Its Protein Interactions and Smad3-Regulated Gene Expression” (PLoS ONE, 2011)
